This assay concerns the target RhoA (human) (UniProt P61586).

The source of these data is publication PMC11898728.

Sequence of UniProt P61586 (P61586 whole entry): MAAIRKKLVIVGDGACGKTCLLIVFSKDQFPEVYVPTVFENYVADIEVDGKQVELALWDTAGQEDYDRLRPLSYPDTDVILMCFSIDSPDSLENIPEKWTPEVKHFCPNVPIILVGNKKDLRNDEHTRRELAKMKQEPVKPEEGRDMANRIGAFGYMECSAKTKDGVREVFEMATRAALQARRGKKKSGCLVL

For the substance “VopX (amino acids 26-252), purified (domain or fragment)”, the average exchange rate of RhoA in the presence of VopX (in vitro RhoGEF exchange assay with N-MAR-GTP; 1.5 µM GTPase, 0.75 µM N-MAR-GTP, 0.5 µM VopX) (µmol N-MAR-GTP/μmol GTPase/s) amounted to 167.
